The text below walks through data of article PMC4538835.

Common to all, as to assay: fluorescence polarisation
A general note: Fluorescence polarisation rises when a labelled molecule tumbles more slowly, as on binding a larger partner.

Test [1] has as its target MED25 ACID/PTOV domain (residues 391 to 548) (human) (UniProt Q71SY5).
The target of test [2] is TAMRA-labelled ERM_(38–68) F47L/W57L (human) (UniProt P41161).
Test [3] has as its target TAMRA-labelled ERM_(38–68) (human) (UniProt P41161).
Test [4] deals with TAMRA-labelled ERM_(38–68) W57L (human) (UniProt P41161).

Usually IC50 stands for the concentration that inhibits the measured activity by half. A low value points to higher potency. In turn, “ERM_(38–68) peptide (unlabelled by dye) (from UniProt P41161 38-68)” displayed an IC50 in test [1] of 1500 nM.
Broadly, the Kd is the free concentration of one partner at which half of the binding sites on the other are occupied at equilibrium, for simple one-to-one binding. As for “MED25 ACID/PTOV domain (residues 391 to 548) (from UniProt Q71SY5 391-548) (domain or fragment)”, the Kd worked out at 8.3 µM in test [2], 600 nM in test [3] and 4.8 µM in test [4].
